We go through 41 sequences from the nanobody polyreactivity screen of Harvey et al. (2022).

A short description of the data set: yeast display, Sf9 membrane polyspecificity reagent, FACS + sequencing; frameworks hold sequencing errors. The method in brief: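 Using colony PCR, genes from sorted yeast display clones were amplified, then sequenced on MiSeq at 2 × 250 and filtered by CDR length. The clones had been stained with 10% biotinylated, detergent-solubilized Sf9 membrane reagent for 1 hour at 4 °C and sorted by FACS into low and high (top ~1%) gates on anti-HA and streptavidin fluorescence. Polyreactivity labels come from the gate of origin.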
With “QVQLVESGGGLVQAGGSLRLSCAASGRIFTHYAMGWYRQAPGKERELVASISWSGGSTNYADSVKGRFTMSRDNAMNTVYLQMNSLKPEDTAVYYCARKYRYLFATFDYWGQGTQVTVSS”, the “polyreactivity (PSR sort gate)” value is recorded as “high polyreactivity”.
The entry for “QVQLVESGVGLVKAGGTLRLSCAASGGIFDYNAMGWYRQAPGKERELVAYYADSVKGRFTLSRDNAKNTVYLQMNSLKPEDTAVYYCAVDGGEFSSYGYWGQGTQVTVSS” is “low polyreactivity”; for “QVQLVESGGGLVQAGGSLRLSCAASGSIFASYAMGWYRQAPGKERELVAAISRSGTSTRYADSVKGRFTISRDNAKNTVYLLMNSLKPEDTAVYYCAARWYVFFRKYDYWGQGTQVTVSS” it is “high polyreactivity”; for “QVQLVESGGGLVQAGGSLRLSCAASGSIFKTNARGLYRQAPGTEREFVAAISWSGGSTYADSVKGRFTISRDTAKNTVYLQMNSLKPEDTAVYYCAAVDYYYYGVYSSWYDYWGQGTQVTVSS” it is “low polyreactivity”.
Next, “QVQLVASGGGLVQAGGSHRLSCAASGRIFYYYAMGWYRQAPGKERELVASINSGGSTYYADSVKGPFTISRDNAKHTVYFQMNSLKPEDTACYYCAAGFQLVKGSLSGRAAYYYWGQGTQVTVSS”: “high polyreactivity”; “QVQLVESGGGLVQAGGSLRLSCAASGSTVNFYAMGWYRQAPGKERELVAAISWRGNTYYADSVKGRFTISRDNAKNTVYLQITSLKPEDTAVSYCDAYEWLAYTSAWYGYWGQGTQVTVSS”: “high polyreactivity”; “QVQLQESGGGLVQAGGSLRLSCAASGYISQSSVMGWYRQAPGKERDFVASISYGATTYYADSVKGRFTISRDNAKNTVYLQTNSPKPEDTAVYYCAVGVKRGFSHRYWGQGTQVTVSS”: “high polyreactivity”.
The entry for “QLQLVESGGGLVQAAGSLRLSSAASGSIFPDNAKGWYRQAPAKERELVATITSGGDTNYADSVKGRFTISRDNAKNTVYLQMNSLKPEDTAVYYCAADVYPDWLVKYDYWGQGTQVTVSS” is “low polyreactivity”; for “QVQLESGGGLVQAGGSLRISCAASGSTFVTYDMGWDRQAPGKEREIVAAIDWSGDSTYADSVKGRFTISRDNAKNTVYLQMNSLIPEDTAVYSCAADYDNYGDVYPYYTAGYGYWGQGTQVTVSS” it is “low polyreactivity”.
Consider “QVQLVESGGGLVQAGGSLRLTCAASGRILSHYAMVWYIQAPGKERELVATINSGGATYYADSVKGRFTISRDNAKYTVYFQMNSLKPEDTAVYYCAVDYAVSYAGWVLRYDYWGQGTQVTVSS”, for which the “polyreactivity (PSR sort gate)” value is “low polyreactivity”.
The entry for “QVQLVESGGGLVQAGGSLRLSCAASGSTFTTNVMGWYRQAPGKERELVAAISWSSGSTYYADSVKGRFTISRDNAKNTVYLQMNSLKPEDTAVYYCAAKSTYVVSKMNYWGQGTQVTVSS” is “high polyreactivity”.
The entry for “QVQLVESGGGLVQAARSLRLSCAASGRIFNYYAMGWYRLAPGKERELVAAINSGGSTYADSVKGRFTISRDNAKNTVYLPMNSLKPEDTAVYYCAKDGQLQSGRERPSGYDHWGQGTQVTVSS” is “low polyreactivity”.
Next, “QVQLVESGGGLVQAGGSLRLSCAASGRIFHGYAMGWYRQAPGKDRELVAVIRSGVNTNYADSVKGRFTISRDNAKNTVYLQMNSLKPADTAVYYCAVDYTPEDWGDDYWGQGTHVTVSS”: “low polyreactivity”; “QVQLVESGGGLVQAGGSLRLSCAASGSTFETNAMGWYRPAPGKERELVAAIRWSTGNTYYADSVKGRFTISRDNAKNTVYLQMNSLKPEDTEVYYCAAYKGKHYIEGYWGQGTQVTVSS”: “low polyreactivity”; “QVQLVESGGGLVQAGGSLRLSCAASGSNFTANAMGWYRQAPGKERELVAAISRSGGRTYYADSVKGRFTISRDNAKNTVYLQMNSLKPEDTAVYYCNVGRFNTSGYDYWGQGTQVTVSS”: “high polyreactivity”.
As to “QVQLVESGGGLVQAGGSLRLSCAASGITFLKNAMGWYRQAPGKESELVAAISSSGGSTYYADSVKGRFTISRDNAKNTVYLQMNSLKPEDTAVYYCAARIYWYTPGRRGYTYDYWGQGTQVTVSS”, the “polyreactivity (PSR sort gate)” value is “high polyreactivity”.
Next, “QVQLVESGGGLVQAGGSLRLSCAASGFIFYLYAMGWYRQAPGKERELVAAISWDGGSTYYADSVKGRFTISRDNAKNTVYLQMNSLKPEDTAVYYCAADREFWWEVVYTYEYYYWGQGTQVTVSS”: “low polyreactivity”; “HVQHVESAGGLVQAGGSLRLSCAASGSIFTYNALGGYIQAPGKERELVAAIDYSGGSTYYADSVKGRFTISRDNAKNTVYLQMNSLKPEDTAVYYCAAPWVPYPGYSLYGYDYWGQGTQVTVSS”: “low polyreactivity”.
The entry for “QVQLVESGGGLVQPGGSLRLSCAASGFIFLGYAMGWYRQAPGKERELVATITWRGGSTYYADSVKGRFTISRDNAKNTVYLQMNSLIPEDTADYYCAATRGWLHSFARDDHDYWGQGTQVTVSS” is “high polyreactivity”; for “QVQLVESGGGLVQAGGSLRLSCAASGFNFRGNAMGWYRQAPGKERELVARISGSGDSTYYADSVKGRFTISRDNAKNTVYLQMNSLKPEDTAVYYCNADVFPAVEAYDSSIEYYSWGQGTQVTVSS” it is “low polyreactivity”; for “QVQLVESGGGLVQAGGSLRLSCAASGRIFVPNAMGWYRQAPGKERELVARISRSDGSTYYADSVKGRFTISRDNAKNTVYLQMNSLKPEDTAVYYCAASTTPRWWSFKYYYWGQGTEVTVSS” it is “high polyreactivity”.
Next, “QVQLVESEGGLVQAGGSLRLTCAASGFIYKGYAMGSYRQAPGKETELVAAISSSGTSTYYADSVKGRFTISRDNAKNTVYLQMNSLKPEDTAVYYCARVSKRTWSGYYYWGQGTQVTVSS”: “high polyreactivity”; “QVQLVESGGGLVQAGGSLRLSCAASGSTFPVNAMGWYRQAPGKEREMVASITWGDGSTYYADSVKGRFTISRDNAKNTVYLQMNSLKPEDTADYYCNKDFFYGYDAASYRPEYDYWGQGTQVTVSS”: “low polyreactivity”.
“QVQLVESGGGLVHAGGSLRLSCAASGRIFTYNAMGWYRQAPGKERELVAAISTGGSTNYADSVKGRFTISRDNAKNTVYLQMNSLKPEDTAVYYCARRWWPTYDYWGQGTQVTVSS”: the “polyreactivity (PSR sort gate)” value was “high polyreactivity”.
Consider “QVQLVESGGGLDQAGGSLRLSCAASGRIFHVNVMGGYRQAPGKERELVAAISKSGGSTYYADSVKGRFTISRDNAKNTVYLQMNSLKPEDTAVYYCAAVRDSARYYYWGQGTHVTVSS”, for which the “polyreactivity (PSR sort gate)” value is reported as “high polyreactivity”.
As for “QVQLVESGGGLVQAGGSLRLSCAASVSTFSVYAMGWYRQAPGKERELVADISENGGSTYYADSVKGLFTISRDNAKNTVYLQMNSLKPEHTAVYYCAALYHSTSHTYSYWGQGTQVTVSS”, the “polyreactivity (PSR sort gate)” value is recorded as “low polyreactivity”.
The entry for “QVQLVESGGGLVQAGGSLRLSCAASGSTFPVYAMGWYRQAPGKERELVAAITSGGSTYYADSVKGRFTISRDNAKNTVYLQMNSLKPEDTAVYYCAAEDSSPAYNHWGQGTQVTVSS” is “low polyreactivity”.
As for “QVQLVESGGGLVQAGGSLRLSCAASGSTFFYYAMGWYRQAPGKERELVAAITSSGGRTYYADSVKGRFTISRDNAKITVYLQMNSLKPEDTAVYYCAARDYRQSRYEYWGQGTQVTVSS”, the “polyreactivity (PSR sort gate)” value is “high polyreactivity”.
On to “QVQLVESGGGLVQAGGSLRLSCAASGRIFYSNTMGWYRQAPGKERELVARIDTGGGSTYADSVKGRFTISRDNAKNTVYLQMNSLKPEDTAVYYCNKKGRWRSWGSTSMVSMDYWGQGTQVTVSS”, for which the “polyreactivity (PSR sort gate)” value is “low polyreactivity”.
Next, “QVQLVESGGGLVQAGGSLRLSCAASGSTLYKYAMGWYRQAPGKERELVAAISWSGSSTYYADSVKGRFTISRDNAKNTVYLQMNSLKPEDTAVYYCAAYPRPYIGYTDGYVWYEFDYWGQGTQVTVSS”: “low polyreactivity”.
Consider “QVQLVESGGGLVQAGGSLRLSCAASGRIFPFYAMGWYRQAPGKERELVAAISRGGSTKYADSVKGRFTISRDNAKNTVYLQMKSLKPEDTAVYYCAAAGYGGSVAAYYYWGQGTQVTVSS”, for which the “polyreactivity (PSR sort gate)” value is “high polyreactivity”.
“QVQLVESGAGLFQAGGSLRISCAASGLIFDGYAMGWYRQATGKERELVAAITRSGGSTSYADSVKARFTISRDNAKNTVYLHMNSLKPEDTAVYYCAAKVHTFYYHYYSWGQGTQVTVSS”: the “polyreactivity (PSR sort gate)” value is given as “high polyreactivity”.
Next, “QVQLVESGGGLVQAGGSLRLSCAASGITFPYYAMGWSRQAPGKERELVAAISSSGGSSYYADSVKGRFTISRDNAKNTVYLQMNSLKPEDTAVYYCATRNTRFHLDYWGQGTQVTVSS”: “high polyreactivity”; “QVQLVESGGGLVQAGGSLRLSCAASGFTFVRYAMGWYRQAPGKERELVAAISSSGSSTYYGDSVKGRFTISRDHEKNTVYLQMNSLKPEDTAVYYFNARAGRGEDYWGQGTQVTVSS”: “low polyreactivity”; “QVQLQESGGGLVQAGASLRLSCAASGTIFLFRNMGWHRQAPGKERELVAGINGGTTTYYADSVIGRFTISRDNAKNTVYLQMNSLKPDDTAVYNCAAGASRLTYYDYWGLGTQVTVSS”: “low polyreactivity”.
With “QVQLVESGGGLVQAGGSLRISCAASGIIFDRYVMGWYRQAPGKERELVATITRSVNTDYADSVKGRFTISRDNAKNTVYLQMNSLKPEDTAVYYCAARKYYYFPVAYDYWGQGTQVTVSS”, the “polyreactivity (PSR sort gate)” value is listed as “high polyreactivity”.
Next, “QVQLVESGGGLVQAGGSLRLSCAASGSTFGYNAMGWYRQAPGKERELVAAITYRGSTYYADSVKGRFTISRDNAKNTVYLQMNSLKPEDTAVYYCATQGARYYHTYGYWGQGTQVTVSS”: “low polyreactivity”; “QVQLVESGGGLVQAGGSLRLSCAASGRIFQRYAMGWYRQAPGKERELVAVITKRGGNTYYADSVKGRFTISRDNAKNTVYLQMNSLKPEDTAVYYCATRSGRSTGDYWGQGTQVTVSS”: “high polyreactivity”.
Regarding “QVQLVESGGGLVQAGGSLRLSCAPSGRIFYGYAMGWYRQAPGKERELVAAITSGSRTNYADSVKGRFTISRDNAKNTVYLQMNSLKPEDTAVYYCHSLYGSYLYSLVHTSRYDYWGQGSQVTVSS”, the “polyreactivity (PSR sort gate)” value is “low polyreactivity”.
The entry for “QVQLVESGGGLVQAGGSLRLSCAASGFTFVQYAMGWYRPAPGKERELVATITNGGGSTYYADSVKGRFTISRDNAKNTVYLQMNSLKPEDPAVYYCNADSGGRGAPTSTYDYWGQGTQVTLSS” is “low polyreactivity”.
Regarding “QVQLVESGGGLVQAGGSLRLSCAASGSTFVGNAMGWYRQEPGKERELVATISNSGGRTYYADSVKGRLTISRDNAKYTVYLQMNSLKPEDTAVYYCAADHPDFGPGYSFDYWGQGTQVTVSS”, the “polyreactivity (PSR sort gate)” value is given as “low polyreactivity”.
